The results in this text go back to paper PMC8752837, “Structural basis of BAK activation in mitochondrial apoptosis initiation” (Nature Communications, 2022).

Test [1] is described as follows: Liposome permeabilization by WT and mutant BAK proteins (autoactivation, or direct activation by BID BH3). Type of test: biochemical. As to conditions: absence of BID BH3. Here is the method:
Human BAK-∆TM-His6 (BAK)[26] spontaneously permeabilizes liposomes above a certain dose (>100 nM, Fig. 1a). In these dye-release assays[43]–[46], BAK is recruited via His-tag to liposomes containing 2.5 µM of the lipid 1,2-dioleoyl-sn-glycero-3-[(N-(5-amino-1-carboxypentyl)iminodiacetic acid)succinyl] (nickel salt), DGS-NTA(Ni).
To probe autoactivation with full-length BAK, we mutated hydrophobic residues at positions (0)−(6) of the BH3 to alanine or arginine, and D83, which forms the conserved salt bridge (s) with R127, to alanine (Fig. 2a). The BH3 residues participate in autoactivation from the ligand side [hydrophobic positions (0)–(5) and D83(s)] and also from the receptor groove side [hydrophobic positions (3)–(5)] (Fig. 2a). Thus, substitutions at positions (3)–(5) should affect receptor and ligand activities and are predicted to impact BAK activation more severely than mutations of positions (0)–(2), which affect only ligand activity. […] In contrast, almost all (2)–(5) and (s) missense mutants were considerably impaired in autoactivation (Fig. 2b and Supplementary Fig. 3a). […] Despite impairment in autoactivation, all missense mutants were directly activated by BID BH3 peptide, although they induced lower level of permeabilization compared to WT BAK (Fig. 2b and Supplementary Fig. 3a).
We performed liposome permeabilization assays as previously described[43]–[46]. […] (nickel salt) [DGS NTA(Ni), 2.5 μM final concentration in each assay] (Avanti Polar Lipids). We prepared 12.5 mM fluorophore; 8-aminonaphthalene-1, 3, 6-trisulfonic acid, disodium salt (ANTS) and 45 mM quencher; p-xylene-bis-pyridiniumbromide (DPX) in LUV buffer (10 mM HEPES pH 6.8, 200 mM KCl and 5 mM MgCl2). We mixed the lipid film in ANTS/DPX solution by vortexing and sonication (~15 min) followed by extrusion through polycarbonate membrane of 2 μm pore size (Avanti Polar lipids) to generate homogenous large unilamellar vesicles (LUVs). We separated LUVs from free ANTS/DPX by S500 size exclusion chromatography and stored them at 4 °C in the dark. We prepared peptide and protein dilutions in 96-well black flat bottom plates (Costar) kept on ice. ANTS release from permeabilized liposomes causes an increase in fluorescence, which we monitored at 37 °C for 90 min using a CLARIOSTAR microplate reader (BMG Labtech) set at excitation and emission wavelengths of 360 and 530 nm, respectively. We normalized the data relative to maximum and minimum fluorescence induced by 3% CHAPS and buffer controls, respectively. We quantified liposome permabilization by integrating area under curve (AUC) of normalized traces based on the Simpson’s equation, and analyzed that data in Excel and GraphPad Prism. AUC measurements reflect the kinetic and extent of liposome permeabilization and provide quantitative means for comparison between different experimental conditions (e.g., BAK mutants with gross or partial variation in activity). Variability in permeabilization of different liposomes is common and our analyses compare among conditions investigated with the same liposomes. Although the absolute permeabilization values may differ, the trends for the same conditions are always very similar between different liposomes.

The test system of test [2] is BCL2allKO HCT116 cells reconstituted with Dox-inducible mC-BAK. Briefly: Dox-induced cell death by IncuCyte imaging of SYTOX Green uptake (autoactivation). Type of test: cell-based, human. As to conditions: mC-BAK BCL2allKO HCT116 + Dox + qVD, average, N = 3. The text has this:
For mammalian cell culture experiments, we cloned the full length human BAK cDNA into pCR 2.1 TOPO vector, mutated BAK as needed, and PCR amplified the BAK gene for cloning into the BamHI and NotI sites of pRETROX mCherry vector for retroviral transduction. Amplification and mutagenesis primers are included in Supplementary Table 4. To test direct BAK activation and BAK autoactivation in cells, we produced cells stably expressing mCherry-human BAK (mC-BAK) ± human BID (BID) on a genetic background devoid of the entire BCL-2 family repertoire (all 17 BCL-2 genes), BCL2allKO HCT116, as described by the Xu Luo laboratory. We expressed WT and mutant mC-BAK using the doxycycline (Dox)-based inducible Tet-On 3G retroviral system from the pRetroX-TRE3G-Puro^R in BCL2allKO HCT116 cells expressing the Tet3G from pRetroX-Tet3G-Blast^R. We selected cells with puromycin (2.5 µg/mL) and blasticidin (2 µg/mL) starting at 2 days after retroviral transduction. To enrich for populations of cells that express mC-BAK, we treated cells with low Dox dose (25 ng/mL) and fluorescence-activated cell sorted (FACS) the mCherry positive cells. We performed the enrichment twice before cell death analysis. One caveat of our cellular system is tagging BAK with N-terminal mCherry, which may affect folding efficiency, degradation, and BAK interactome.
(§1) We seeded cells in 24-well (100,000 cells/well), 96-well (15,000 cells/well), or 384-well (10,000 cells/well) plates coated with 10 µg/mL fibronectin. After ≥24 h of attachment and recovery, we induced cell death with Dox (up to 1000 ng/mL) and monitored SYTOX Green (25 nM) uptake by Incucyte imaging. This dye marks cells with compromised plasma membrane integrity. mC-BAK expressed before 24 h, which coincided with detectable cell death. We monitored Incucyte imaging for up to 48 h, followed by endpoint FACS analysis to measure the extent of cell death based on SYTOX Green positive cells on FACSCalibur systems (BD Biosciences). As expected, cells with low mCherry fluorescence were refractory to cell death.

In test [3] the test system is BCL2allKO HCT116 cells reconstituted with mC-BAK. Briefly: Endpoint FACS analysis of SYTOX Green positive cells. Type of test: cell-based, human. As to conditions: average, N = 3. The method, then: as §1
Background: A flow cytometer gives signals particle by particle.

B1: M71A (0): BAK missense mutant (protein, UniProt Q16611 2-211, looked up, variant M71A)
Bcl-2 homologous …: ASGQGPGPPRQECGEPALPSASEEQVAQDTEEVFRSYVFYRHQQEQEAEGVAAPADPEMVTLPLQPSSTAGQVGRQLAIIGDDINRRYDSEFQTMLQHLQPTAENAYEYFTKIATSLFESGINWGRVVALLGFGYRLALHVYQHGLTGFLGQVTRFVVDFMLHHCIARWIAQRGGWVAALNLGNGPILNVLVVLGVVLLGQFVVRRFFKS
With B1, in test [1], the “autoactivation in liposome permeabilization assays” value (“autoactivation” for short) is on record as “behave similar to WT BAK”.

B2: E46A: BAK mutant in helix α1 electrostatic network (protein, UniProt Q16611 2-211, looked up, variant E46A)
Bcl-2 homologous …: ASGQGPGPPRQECGEPALPSASEEQVAQDTEEVFRSYVFYRHQQAQEAEGVAAPADPEMVTLPLQPSSTMGQVGRQLAIIGDDINRRYDSEFQTMLQHLQPTAENAYEYFTKIATSLFESGINWGRVVALLGFGYRLALHVYQHGLTGFLGQVTRFVVDFMLHHCIARWIAQRGGWVAALNLGNGPILNVLVVLGVVLLGQFVVRRFFKS
In the case of B2, the “autoactivation” value in test [1] was “hyperactive compared to WT”.

B3: I85A (4): BAK missense mutant (protein, UniProt Q16611 2-211, looked up, variant I85A)
Bcl-2 homologous …: ASGQGPGPPRQECGEPALPSASEEQVAQDTEEVFRSYVFYRHQQEQEAEGVAAPADPEMVTLPLQPSSTMGQVGRQLAIIGDDANRRYDSEFQTMLQHLQPTAENAYEYFTKIATSLFESGINWGRVVALLGFGYRLALHVYQHGLTGFLGQVTRFVVDFMLHHCIARWIAQRGGWVAALNLGNGPILNVLVVLGVVLLGQFVVRRFFKS
With B3, the “autoactivation” value in test [1] is on record as “activity comparable to WT”.

B4: I81A (3): BAK missense mutant (protein, UniProt Q16611 2-211, looked up, variant I81A)
Bcl-2 homologous …: ASGQGPGPPRQECGEPALPSASEEQVAQDTEEVFRSYVFYRHQQEQEAEGVAAPADPEMVTLPLQPSSTMGQVGRQLAIAGDDINRRYDSEFQTMLQHLQPTAENAYEYFTKIATSLFESGINWGRVVALLGFGYRLALHVYQHGLTGFLGQVTRFVVDFMLHHCIARWIAQRGGWVAALNLGNGPILNVLVVLGVVLLGQFVVRRFFKS
Consider B4, for which the “AUC (48 hr) of SYTOX Green counts/confluence” value in test [2] (Dox 100 ng/mL) was 55640.5; in test [2] (Dox 1000 ng/mL), 85389.8. Also, the “flow cytometry SYTOX Green counts/confluence (48 hr)” value in test [3] (Dox 100 ng/mL) is recorded as 37.7333; in test [3] (Dox 1000 ng/mL) it was 54.2.

B5: R42A: BAK mutant in helix α1 electrostatic network (protein, UniProt Q16611 2-211, looked up, variant R42A)
Bcl-2 homologous …: ASGQGPGPPRQECGEPALPSASEEQVAQDTEEVFRSYVFYAHQQEQEAEGVAAPADPEMVTLPLQPSSTMGQVGRQLAIIGDDINRRYDSEFQTMLQHLQPTAENAYEYFTKIATSLFESGINWGRVVALLGFGYRLALHVYQHGLTGFLGQVTRFVVDFMLHHCIARWIAQRGGWVAALNLGNGPILNVLVVLGVVLLGQFVVRRFFKS
Regarding B5, the “autoactivation” value in test [1] is “hyperactive compared to WT”.

B6: R137A: BAK mutant in helix α1 electrostatic network (protein, UniProt Q16611 2-211, looked up, variant R137A)
Bcl-2 homologous …: ASGQGPGPPRQECGEPALPSASEEQVAQDTEEVFRSYVFYRHQQEQEAEGVAAPADPEMVTLPLQPSSTMGQVGRQLAIIGDDINRRYDSEFQTMLQHLQPTAENAYEYFTKIATSLFESGINWGRVVALLGFGYALALHVYQHGLTGFLGQVTRFVVDFMLHHCIARWIAQRGGWVAALNLGNGPILNVLVVLGVVLLGQFVVRRFFKS
On to B6, for which, in test [1], the “autoactivation” value is on record as “hyperactive compared to WT”.
